In this data set the test system is MS2 coat protein. Kind of data set: apparent KD of MS2 coat protein; designed switch direction (-1 OFF switch, 1 ON switch): -1; higher = weaker reporter binding. Summed up:
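Stalled E. coli RNA polymerase transcribed designed RNA switches on Illumina chips, which were then titrated with SNAP-549-labelled MS2 coat protein, doubling from 0.7 or 1.5 nM to 3 µM. Steps lasted from 0.8–1.5 h at the lowest concentration to 10–20 min at the highest. The apparent KD is each design's median over clusters of curve-fitted normalised fluorescence.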

The mark [1] stands for this setting: Eterna round: R95, input ligand: microRNA oligo, concentration not stated.
Setting [2] is: input ligand: microRNA oligo, concentration not stated.
[3] abbreviates: Eterna round: R95, input ligand: FMN 200 uM.
[4] abbreviates: Eterna round: R95, input ligand: none.

For “CGAUGUGGAGUGAGGAUAUCGUGUUCGAAAGAACGUGAGAAGGCACAUGAGGAUCACCCAUGUGAUUCACGUCG [Omei Ex4B A6] (Eterna round: R97, puzzle: Brourd's mod of Exclusion 4)”, the “apparent KD of MS2 coat protein” value by setting is: (input ligand: FMN 200 uM) 0.028 µM; (input ligand: none) 0.0156 µM.

Turning to “CGCAAGUUAGGAUAUGACGCGAAUUUCCGGCUUUGGCCGGAUCAGAAGGAACUUGAGGAUCACCCAAGUGGCCG [Adia] (Eterna round: R97, puzzle: Exclusion 4)”, the “apparent KD of MS2 coat protein” value was determined as 0.0201 µM (input ligand: FMN 200 uM) and 0.0159 µM (input ligand: none).

On to “CGCAAUGGAGGAUAUACAUGAGGAUCACCCAUGUGGUCCUUGAGAUUCCAAAAGUCAAGUAGAAGGUCAGCGGC [Eternabot (L1) Solution 45] (Eterna round: R97, puzzle: Exclusion 3)”, for which the “apparent KD of MS2 coat protein” value (input ligand: FMN 200 uM) is 1.21 µM and the “apparent KD of MS2 coat protein” value (input ligand: none) came out at 1.6 µM.

For the sequence “CGCAGACGAGGAUAUAGAUGGAAUGACAUGAGGAUCACCCAUGUGAUCGAUCUAUUGGGUUUAGAAGGUGUCUGCG [JR_Ex5_Sub046] (Eterna round: R97, puzzle: Exclusion 5)”, the “apparent KD of MS2 coat protein” value was 0.0144 µM (input ligand: FMN 200 uM) and 0.0152 µM (input ligand: none).

Consider “CGCCUACAUGAGGAUCACCCAUGUGAGGAUAUCCUGCGAGGAUCAAAAGAUCCUCGUGGGAGAAGGCGCCUGGA [Omei Ex1 B6] (Eterna round: R97, puzzle: Exclusion 1)”, for which the “apparent KD of MS2 coat protein” value (input ligand: FMN 200 uM) turned out to be 0.0376 µM and the “apparent KD of MS2 coat protein” value (input ligand: none) was 0.0131 µM.

On to “CGCCUACAUGAGGAUCACCCAUGUGAGGAUAUCCUGCGAGGAUCAAAAGAUCCUCGUGGGAGAAGGCGCUUGGA [Omei Ex1 B7] (Eterna round: R97, puzzle: Exclusion 1)”, for which the “apparent KD of MS2 coat protein” value (input ligand: FMN 200 uM) came to 0.0187 µM and the “apparent KD of MS2 coat protein” value (input ligand: none) was found to be 0.0194 µM.

As for “CGCCUGGGAGGAUAUCCAAUAUAUGACAUGAGGAUCACCCAUGUUUCCACUCGUACCUCCGGAGAAGGCCCGGCGU [Ex5 #31] (Eterna round: R97, puzzle: Exclusion 5)”, the “apparent KD of MS2 coat protein” value runs as follows: (input ligand: FMN 200 uM) 0.0217 µM; (input ligand: none) 0.0267 µM.

On to “CGCGCCUUUGUCAGGAUAUUCGGGCGAGCCCGGCCGGAGAAGGGACUUGAGGAUCACCCAAGUGACGCGAAAAC [Beenusre] (Eterna round: R97, puzzle: Brourd's mod of Exclusion 4)”, for which the “apparent KD of MS2 coat protein” value (input ligand: FMN 200 uM) stood at 0.0208 µM and the “apparent KD of MS2 coat protein” value (input ligand: none) was found to be 0.0206 µM.

As to “CGCGGCGCGUAGGAUAUUGGGUCGGACGGCAAAUAAGAAGGACGCACAUGAGGAUCACCCAUGUCGAAAGCACA [Eternabot (Original) Solution 17] (Eterna round: R97, puzzle: Exclusion 6)”, the “apparent KD of MS2 coat protein” value is, setting by setting: (input ligand: FMN 200 uM) 0.0278 µM; (input ligand: none) 0.0337 µM.

Consider “CGCGUAUGAGGAUAUGCAUAAAAGGGUGCACUGAGUCUGAGACAUGAGGAUCACCCAUGUAGAAGGCGUGCGCU [Beerteon] (puzzle: Exclusion 2)”, for which the “apparent KD of MS2 coat protein” value under setting [1] is 0.0136 µM.

As for “CGGAUACAUGAGGAUCACCCAUGUGAGGAUAUCGUACGUUCGUCGAUAGACGAUCGUACGAGAAGGCAUGACCG [Mat - Exclusion 1 - Eli Mod - D34] (Eterna round: R97, puzzle: Exclusion 1)”, the “apparent KD of MS2 coat protein” value is 0.0713 µM (input ligand: FMN 200 uM) and 0.2 µM (input ligand: none).

Consider “CGGCAUGUCUGAGGAUAUCUGCACGAUUAGUGCAGAGAAGGCAGAACAUGAGGAUCACCCAUGUAGAUCAUUAACCGAUUAAUU [ENG1/7-A1] (Eterna round: R96, puzzle: Exclusion NG 1)”, for which the “apparent KD of MS2 coat protein” value (input ligand: FMN 200 uM) was 0.275 µM, the “apparent KD of MS2 coat protein” value under setting [2] was 0.127 µM and the “apparent KD of MS2 coat protein” value (input ligand: none) turned out to be 0.194 µM.

For the sequence “CGGCCGUUUGUAAGGAUAUAACUAGUUGCGACCAGUUAGAAGGUACAUGAGGAUCACCCAUGUCUUCCAGUGGC [Eternabot (L1) Solution 76] (Eterna round: R97, puzzle: Brourd's mod of Exclusion 4)”, the “apparent KD of MS2 coat protein” value reads like this: (input ligand: FMN 200 uM) 0.0162 µM; (input ligand: none) 0.0151 µM.

With “CGGCGGGCAGGAUAUGGUAAUAAUUACAUGAGGAUCACCCAUGUGGAUAUAUGGGAAUAACCAGAAGGGCUUGUUG [-20.1, -20 kcal, A 30%] (Eterna round: R97, puzzle: Exclusion 5)”, the “apparent KD of MS2 coat protein” value runs as follows: (input ligand: FMN 200 uM) 0.0632 µM; (input ligand: none) 0.0744 µM.

Take “CGGGAGGAAGGAUAUACACGGCCUCCUAGAAUAAAUCCUGGACAUGAGGAUCACCCAUGUAGAAGGUCCACCGA [Tiuslala] (puzzle: Exclusion 2)”: under setting [1], the “apparent KD of MS2 coat protein” value amounted to 0.0173 µM.

As for “CGGGCAGCAGGAUAUACAUAGGUCAACAGAAAUGAGUAUUGACAUGAGGAUCACCCAUGUAGAAGGGCUGUACC [Eternabot (L2) Solution 96] (Eterna round: R97, puzzle: Exclusion 2)”, the “apparent KD of MS2 coat protein” value is, setting by setting: (input ligand: FMN 200 uM) 0.412 µM; (input ligand: none) 0.391 µM.

In the case of “CGGGCGCGUGUAGGAUAUCGGGCCCGGUGGGCCCGAGAAGGACAUGAGGAUCACCCAUGUGCCCGGGUUGCCCGGGCGCGCCCG [-50, -49 kcal and 14% A] (Eterna round: R96, puzzle: Exclusion NG 1)”, the “apparent KD of MS2 coat protein” value runs as follows: (input ligand: FMN 200 uM) 0.0146 µM; under setting [2], 0.00782 µM; (input ligand: none) 0.0145 µM.

For “CGGUAGUGCUCAGGAUAUACAUGAGGAUCACCCAUGUAACUAGAAUCGGUCGUCCGAUCAGUGGUGUAGAAGGGAGGCUGGCUG [random 1, A 25%] (Eterna round: R96, puzzle: Exclusion NG 2)”, the “apparent KD of MS2 coat protein” value turned out to be 0.0321 µM (input ligand: FMN 200 uM), 0.022 µM under setting [2] and 0.0315 µM (input ligand: none).

As to “CGUACUAAAGUCAGGAUAUUGUCUCGGAUACGAAACAAGAAGGGACAUGAGGAUCACCCAUGUAGAUAGUACGA [Malc #30 mod 5] (puzzle: Brourd's mod of Exclusion 4)”, the “apparent KD of MS2 coat protein” value runs as follows: under setting [3], 0.0169 µM; under setting [1], 0.0234 µM; under setting [4], 0.0266 µM.

“CGUACUGAAGUCAGGAUAUUGUCUCGGAUACGAAACAAGAAGGGACAUGAGGAUCACCCAUGUGGACAGUACGA [Malc #30 mod 6] (puzzle: Brourd's mod of Exclusion 4)”: the “apparent KD of MS2 coat protein” value under setting [3] stood at 0.0383 µM, the “apparent KD of MS2 coat protein” value under setting [1] turned out to be 0.044 µM and the “apparent KD of MS2 coat protein” value under setting [4] is 0.0367 µM.

Regarding “CGUCUGUCAGGAUAUGGUUACAUAGACAUGAGGAUCACCCAUGUGACGUGGGACUAGUGAUUAGAAGGGACGAACG [EX5 #69] (Eterna round: R97, puzzle: Exclusion 5)”, the “apparent KD of MS2 coat protein” value is, setting by setting: (input ligand: FMN 200 uM) 0.0365 µM; (input ligand: none) 0.0317 µM.

For the sequence “CGUGACUAAGGAUAUACAUGAGGAUCACCCAUGUGAUUCAAGAUUUUCGACUGGAGAGGUAGAAGGUGGAUGCC [Eternabot (L1) Solution 99] (Eterna round: R97, puzzle: Exclusion 3)”, the “apparent KD of MS2 coat protein” value (input ligand: FMN 200 uM) is 0.0633 µM and the “apparent KD of MS2 coat protein” value (input ligand: none) was 0.0944 µM.

With “CGUGACUCAGGAUAUCUAUAAUAUCACAUGAGGAUCACCCAUGUCCAGCGAAAGCUGGAGAGAGAAGGGAGUCACG [Fiskers Ex 5 - 36] (puzzle: Exclusion 5)”, the “apparent KD of MS2 coat protein” value under setting [3] was 0.0677 µM, the “apparent KD of MS2 coat protein” value under setting [1] was found to be 0.0673 µM and the “apparent KD of MS2 coat protein” value under setting [4] is 0.0615 µM.

For the sequence “CGUGACUGAGGAUAUCUAUAAUGUCACAUGAGGAUCACCCAUGUCCAGCGAAAGCUGGAGGGAGAAGGCAGUCACG [Fiskers Ex 5 - 33] (puzzle: Exclusion 5)”, the “apparent KD of MS2 coat protein” value reads like this: under setting [3], 0.0294 µM; under setting [1], 0.0555 µM; under setting [4], 0.0746 µM.

For the sequence “CGUGCGUAUGUGAGGAUAUGCUGGUCCUUGGAUCGGCAGAAGGCACAUGAGGAUCACCCAUGUGGUGUCGUCCA [salish99_Bmod_ex4_089] (puzzle: Brourd's mod of Exclusion 4)”, the “apparent KD of MS2 coat protein” value under setting [1] came out at 0.0857 µM.

“CGUGGCCAAGGAUAUGGGUAUCAUGACAUGAGGAUCACCCAUGUAUAGAGGAUCCAUAGCCCAGAAGGUGGUCCGG [Eternabot (L1) Solution 85] (Eterna round: R97, puzzle: Exclusion 5)”: the “apparent KD of MS2 coat protein” value (input ligand: FMN 200 uM) is 0.044 µM and the “apparent KD of MS2 coat protein” value (input ligand: none) was determined as 0.017 µM.

On to “CGUGUGUCAGGAUAUUAGUAAUGUAUGGAUACAUAUAUUACUGAGAAGGGACAUGAGGAUCACCCAUGUAUACG [JR_Ex4_Sub059] (Eterna round: R97, puzzle: Exclusion 4)”, for which the “apparent KD of MS2 coat protein” value runs as follows: (input ligand: FMN 200 uM) 0.158 µM; (input ligand: none) 0.0799 µM.

On to “CGUUCGCGAGGAUAUGCAUUCGAGUCCACUACGUGUCUGGGACUUGAGGAUCACCCAAGUAGAAGGCGCCUCAA [salish99_ex2_r4_651] (Eterna round: R97, puzzle: Exclusion 2)”, for which the “apparent KD of MS2 coat protein” value runs as follows: (input ligand: FMN 200 uM) 0.171 µM; (input ligand: none) 0.23 µM.

On to “CGUUGUCAAGGAUAUAUAGAGCUAUACAUGAGGAUCACCCAUGUGGUUAGUGUUGUGUGAGUAGAAGGUGGAAUGU [Eternabot (L2) Solution 99] (Eterna round: R97, puzzle: Exclusion 5)”, for which the “apparent KD of MS2 coat protein” value is 0.0843 µM (input ligand: FMN 200 uM) and 0.224 µM (input ligand: none).

Take “CUAAAAGUGAUCACAGGAACAUGAGGAUCACCCAUGUGCCUCAAGGAUAUGCACGGCUAUCCAGGGUAGAAGGUGAGAAUGCAC [Eternabot solution 30] (Eterna round: R96, puzzle: Exclusion NG 3)”: the “apparent KD of MS2 coat protein” value by setting is: (input ligand: FMN 200 uM) 0.0683 µM; under setting [2], 0.104 µM; (input ligand: none) 0.1 µM.

“CUAAAUCAUGUAGGAUAUGCAUAGCGAAGCUAUGCAGAAGGACAUGAGGAUCACCCAUGUUCUUCCGUCUGCGUACAGACGGAA [Mat - Exclusion NG 1 - Mod of JL - D30] (Eterna round: R96, puzzle: Exclusion NG 1)”: the “apparent KD of MS2 coat protein” value by setting is: (input ligand: FMN 200 uM) 0.268 µM; under setting [2], 0.0324 µM; (input ligand: none) 0.0335 µM.

For the origin of these results see the supplement of paper PMC9170038.
